The record followed here is the supplement of paper PMC7877785.

This data set is described as follows: self-splicing fitness, log relative to wild type (ln ratio); higher = more splicing; Tetrahymena group I intron in knt gene, E. coli kanamycin selection, DiMSum; sequences stand for … in CUCUCU…GGAGGGAAAAGUUAUCAGGCAUGCACCUGGUAGCUAGUCUUUAAACCAAUAGAUUGCAUCGGUUUAAAAGGCAAGACCGUCAAAUUGCGGGAAAGGGGUCAACAGCCGUUCAGUACCAAGUCUCAGGGGAAACUUUGAGAUGGCCUUGCAAAGGGUAUGGUAAUAAGCUGACGGACAUGGUCCUAACCACGCAGCCAAGUCCUAAGUCAACAGAUCUUCUGUUGAUAUGGAUGCAGUUCACAGACUAAAUGUCGGUCGGGGAAGAUGUAUUCUUCUCAUAAGAUAUAGUCGGACCUCUCCUUAAUGGGAGCUAGCGGAUGAAGUGAUGCAACACUGGAGCCGCUGGGAACUAAUUUGUAUGCGAAAGUAUAUUGAUUAGUUUUGGAGUACUCGUGGUCG
The essentials: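 Colonies from six replicate transformations of E. coli BL21(DE3) were pooled and amplicon-sequenced on an Illumina HiSeq 2500. The library placed an intron with all eight P1ex-region nucleotides randomised inside the knt kanamycin-resistance gene on pET-22b(+), and cells grew overnight at 37°C or 30°C on LB agar with or without 25 μg/mL kanamycin (plus 100 μg/mL carbenicillin, 50 μM IPTG, 0.2% rhamnose). Fitness is the DiMSum error-weighted combination of wild-type-normalised replicate fold changes, kanamycin versus none.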

± gives the uncertainty stated by the source.

On to GAGCAGCAAUAUUACGUAAU, for which the “self-splicing fitness (ln)” value (30 °C) is -1.59 ± 0.063 and the “self-splicing fitness (ln)” value (37 °C) was -0.994 ± 0.1.
For AGCCAGCAAUAUUACGGAAG, in that order: -1.57 ± 0.1 and 0.171 ± 0.12.
In the same order, the values of GCAUAGCAAUAUUACGCGUG are -3.46 ± 0.2 and -2.64 ± 0.28.
On to UCGAAGCAAUAUUACGUCAG, for which the “self-splicing fitness (ln)” value is -0.27 ± 0.089 (30 °C) and -0.968 ± 0.12 (37 °C).
With CGCGAGCAAUAUUACGUACG, the “self-splicing fitness (ln)” value runs as follows: (30 °C) -2.6 ± 0.24; (37 °C) -1.5 ± 0.27.
GAGCAGCAAUAUUACGAGCU: the “self-splicing fitness (ln)” value (30 °C) was -2.58 ± 0.12 and the “self-splicing fitness (ln)” value (37 °C) was -1.88 ± 0.18.
As to AGGAAGCAAUAUUACGCGCU, the “self-splicing fitness (ln)” value is, setting by setting: (30 °C) -1.01 ± 0.13; (37 °C) -0.788 ± 0.17.
As to CCGUAGCAAUAUUACGAAGG, the “self-splicing fitness (ln)” value (30 °C) is -3.22 ± 0.39.
As for AGAAAGCAAUAUUACGACAU, the “self-splicing fitness (ln)” value reads like this: (30 °C) 0.0508 ± 0.012; (37 °C) 0.0923 ± 0.032.
Turning to UACUAGCAAUAUUACGACAC, the “self-splicing fitness (ln)” value is, setting by setting: (30 °C) -2.53 ± 0.2; (37 °C) -0.604 ± 0.15.
Take UGUCAGCAAUAUUACGUUUG: the “self-splicing fitness (ln)” value runs as follows: (30 °C) -1.26 ± 0.061; (37 °C) 0.085 ± 0.095.
For CGUGAGCAAUAUUACGCAUC, in that order: -1.85 ± 0.48 and -2.43 ± 0.35.
For the sequence CCGAAGCAAUAUUACGAACA, the “self-splicing fitness (ln)” value (37 °C) is -2.58 ± 0.41.
As to CGGCAGCAAUAUUACGAUUA, the “self-splicing fitness (ln)” value is, setting by setting: (30 °C) -2.86 ± 0.22; (37 °C) -2.17 ± 0.2.
In the same order, the values of GUACAGCAAUAUUACGCACG are -2.42 ± 0.28 and -0.89 ± 0.19.
In the same order, the values of UUCUAGCAAUAUUACGAUGC are -2.12 ± 0.3 and -2.86 ± 0.38.
For GGAAAGCAAUAUUACGGAGG, in that order: -3.5 ± 0.24 and -2.31 ± 0.21.
In the case of CUUGAGCAAUAUUACGCACG, the “self-splicing fitness (ln)” value (30 °C) was -3.3 ± 0.44 and the “self-splicing fitness (ln)” value (37 °C) was -2.48 ± 0.43.
With AAAUAGCAAUAUUACGUGCC, the “self-splicing fitness (ln)” value was -1.46 ± 0.084 (30 °C) and -0.919 ± 0.09 (37 °C).
As to CGCGAGCAAUAUUACGUAGG, the “self-splicing fitness (ln)” value was -2.88 ± 0.14 (30 °C) and -0.445 ± 0.12 (37 °C).
In the same order, the values of CCCGAGCAAUAUUACGUAAC are -3.43 ± 0.23 and -3.05 ± 0.28.
For GGACAGCAAUAUUACGUUAU, in that order: -0.282 ± 0.046 and 0.102 ± 0.066.
Turning to CAACAGCAAUAUUACGUCGU, the “self-splicing fitness (ln)” value is -3.65 ± 0.12 (30 °C) and -2.16 ± 0.11 (37 °C).
AAGGAGCAAUAUUACGCAGA: where the note is “37 °C”, the “self-splicing fitness (ln)” value was -2.56 ± 0.45.
GGACAGCAAUAUUACGACGC: the “self-splicing fitness (ln)” value (30 °C) was -0.126 ± 0.065 and the “self-splicing fitness (ln)” value (37 °C) was 0.658 ± 0.11.
For GGCCAGCAAUAUUACGGAUG, in that order: -0.5 ± 0.08 and -0.503 ± 0.077.
For CGCCAGCAAUAUUACGGAAG, in that order: -1.44 ± 0.064 and -0.526 ± 0.077.
In the same order, the values of ACGAAGCAAUAUUACGAUCU are -0.659 ± 0.081 and -0.244 ± 0.082.
In the case of ACCGAGCAAUAUUACGUACU, the “self-splicing fitness (ln)” value runs as follows: (30 °C) -2.31 ± 0.13; (37 °C) -0.966 ± 0.14.
Turning to UAUGAGCAAUAUUACGGGAC, under “37 °C”, the “self-splicing fitness (ln)” value is -1.11 ± 0.17.
With AAAAAGCAAUAUUACGGCGG, the “self-splicing fitness (ln)” value reads like this: (30 °C) -1.18 ± 0.059; (37 °C) -0.131 ± 0.077.
Consider UUAUAGCAAUAUUACGUCUU, for which the “self-splicing fitness (ln)” value was -3.35 ± 0.3 (30 °C) and -0.948 ± 0.17 (37 °C).
For GAUAAGCAAUAUUACGCGAC, in that order: -1.41 ± 0.14 and -1.54 ± 0.23.
In the same order, the values of CGGUAGCAAUAUUACGGGCU are -3.22 ± 0.13 and -1.82 ± 0.14.
As for GAAGAGCAAUAUUACGGCGC, the “self-splicing fitness (ln)” value (30 °C) is -1.12 ± 0.16 and the “self-splicing fitness (ln)” value (37 °C) is -0.427 ± 0.16.
Take AAGUAGCAAUAUUACGACGU: the “self-splicing fitness (ln)” value reads like this: (30 °C) -0.114 ± 0.059; (37 °C) 0.403 ± 0.078.
For UAGCAGCAAUAUUACGAGAU, the “self-splicing fitness (ln)” value (30 °C) is -3.24 ± 0.2 and the “self-splicing fitness (ln)” value (37 °C) is -3.18 ± 0.28.
Consider GCUAAGCAAUAUUACGGCCC, for which the “self-splicing fitness (ln)” value is -1.78 ± 0.18 (30 °C) and -0.371 ± 0.14 (37 °C).
In the case of GGAAAGCAAUAUUACGACAC, the “self-splicing fitness (ln)” value (30 °C) is -0.204 ± 0.15 and the “self-splicing fitness (ln)” value (37 °C) was -0.206 ± 0.2.
In the same order, the values of UAAAAGCAAUAUUACGGGCG are -0.0526 ± 0.069 and 0.305 ± 0.076.
For the sequence CGCAAGCAAUAUUACGCGGG, the “self-splicing fitness (ln)” value (30 °C) is -4.14 ± 0.42 and the “self-splicing fitness (ln)” value (37 °C) is -2.31 ± 0.23.
With UAUAAGCAAUAUUACGAAUC, under “37 °C”, the “self-splicing fitness (ln)” value is -1.77 ± 0.36.
Consider GACCAGCAAUAUUACGCCCA, for which the “self-splicing fitness (ln)” value runs as follows: (30 °C) -0.923 ± 0.16; (37 °C) 0.179 ± 0.19.
For ACUAAGCAAUAUUACGGUAC, in that order: -2.7 ± 0.27 and -1.89 ± 0.19.
With GUCUAGCAAUAUUACGAGCA, the “self-splicing fitness (ln)” value is, setting by setting: (30 °C) -1.29 ± 0.24; (37 °C) -0.906 ± 0.24.
In the same order, the values of UCGAAGCAAUAUUACGAUAG are -2.95 ± 0.25 and -1.14 ± 0.18.
For AGUCAGCAAUAUUACGUUAA, in that order: -3.47 ± 0.18 and -1.77 ± 0.12.
In the same order, the values of UGUCAGCAAUAUUACGGGUC are -3.4 ± 0.14 and -2.66 ± 0.15.
For GCUGAGCAAUAUUACGAGCG, the “self-splicing fitness (ln)” value is -0.822 ± 0.23 (30 °C) and -0.795 ± 0.21 (37 °C).
Consider CGUUAGCAAUAUUACGAUUG, for which the “self-splicing fitness (ln)” value runs as follows: (30 °C) -0.332 ± 0.073; (37 °C) -0.316 ± 0.084.
Take GCCAAGCAAUAUUACGUCCU: the “self-splicing fitness (ln)” value was -2.11 ± 0.11 (30 °C) and -0.408 ± 0.12 (37 °C).
On to GGGGAGCAAUAUUACGCGGU, for which the “self-splicing fitness (ln)” value (30 °C) was -1.99 ± 0.27.
With AACAAGCAAUAUUACGAAAA, the “self-splicing fitness (ln)” value is -1.7 ± 0.15 (30 °C) and -2.39 ± 0.19 (37 °C).
For CCGUAGCAAUAUUACGGUUC, in that order: -2.21 ± 0.2 and -2.04 ± 0.26.
As to AAUUAGCAAUAUUACGUUUC, the “self-splicing fitness (ln)” value reads like this: (30 °C) -2.89 ± 0.23; (37 °C) -1.57 ± 0.23.
CUUUAGCAAUAUUACGGUUA: the “self-splicing fitness (ln)” value is -3.31 ± 0.28 (30 °C) and -3.19 ± 0.37 (37 °C).
In the same order, the values of CAUAAGCAAUAUUACGGAUG are -3.14 ± 0.14 and -2.17 ± 0.15.
In the same order, the values of AAUUAGCAAUAUUACGACCG are -1.2 ± 0.13 and 0.0816 ± 0.21.
For CGCAAGCAAUAUUACGGUCC, in that order: -1.07 ± 0.076 and -0.628 ± 0.12.
For UAUCAGCAAUAUUACGGCUG, the “self-splicing fitness (ln)” value is -3.56 ± 0.2 (30 °C) and -1.78 ± 0.15 (37 °C).
Turning to CUUGAGCAAUAUUACGUAAA, the “self-splicing fitness (ln)” value (37 °C) was -0.936 ± 0.2.
Take AACAAGCAAUAUUACGUCCU: the “self-splicing fitness (ln)” value (30 °C) turned out to be 0.214 ± 0.064 and the “self-splicing fitness (ln)” value (37 °C) was determined as 0.0455 ± 0.074.
GGGUAGCAAUAUUACGAACC: for the setting “30 °C”, the “self-splicing fitness (ln)” value was -2.05 ± 0.39.
GCUAAGCAAUAUUACGGUUC: the “self-splicing fitness (ln)” value (30 °C) is -1.72 ± 0.097 and the “self-splicing fitness (ln)” value (37 °C) was -0.788 ± 0.11.
For CCUAAGCAAUAUUACGGAUG, in that order: -2.08 ± 0.082 and -1.16 ± 0.085.
For GUCCAGCAAUAUUACGACCA, in that order: -0.7 ± 0.21 and -0.517 ± 0.17.
With AGGUAGCAAUAUUACGCGUA, the “self-splicing fitness (ln)” value by setting is: (30 °C) -1.22 ± 0.017; (37 °C) -0.701 ± 0.034.
As for GGAAAGCAAUAUUACGGUGG, the “self-splicing fitness (ln)” value runs as follows: (30 °C) -1.84 ± 0.16; (37 °C) -1.53 ± 0.16.
Turning to GUUAAGCAAUAUUACGCUUU, the “self-splicing fitness (ln)” value is, setting by setting: (30 °C) -4.08 ± 0.43; (37 °C) -0.79 ± 0.22.
Regarding GAAGAGCAAUAUUACGAUUA, the “self-splicing fitness (ln)” value by setting is: (30 °C) -2.33 ± 0.23; (37 °C) -1.85 ± 0.17.
On to CUGCAGCAAUAUUACGAAGA, for which the “self-splicing fitness (ln)” value was -1.62 ± 0.23 (30 °C) and -2.17 ± 0.27 (37 °C).
CGUUAGCAAUAUUACGCUAG: the “self-splicing fitness (ln)” value reads like this: (30 °C) -2.66 ± 0.17; (37 °C) -1.51 ± 0.25.
For the sequence CACGAGCAAUAUUACGGCAA, the “self-splicing fitness (ln)” value runs as follows: (30 °C) -3.69 ± 0.27; (37 °C) -2.09 ± 0.14.
As to UAGUAGCAAUAUUACGGCUG, the “self-splicing fitness (ln)” value is, setting by setting: (30 °C) -0.344 ± 0.061; (37 °C) -0.0985 ± 0.096.
For GAUGAGCAAUAUUACGACAU, in that order: -1.797 ± 0.016 and -1.02 ± 0.034.
Turning to UCUCAGCAAUAUUACGUCCU, the “self-splicing fitness (ln)” value is, setting by setting: (30 °C) -2.36 ± 0.14; (37 °C) -2.57 ± 0.24.
For the sequence AAAGAGCAAUAUUACGACCU, the “self-splicing fitness (ln)” value was -1.39 ± 0.15 (30 °C) and -0.748 ± 0.16 (37 °C).
